According to US20150004133A1, “Compositions And Methods For Treating Steatohepatitis, Liver Fibrosis, and Hepatocellular Carcinoma (HCC)” (The Regents of the University of California, priority 2013, published 2015):

Columns and labels:
Stat3 = assay: Nuclear translocation of Stat3 in HSCs (fluorescent microscopy); format: cell-based, mouse; conditions: primary murine HSCs, IL-17A 10 ng/ml
Description: (§1) FIG. 9. […] Representative images are shown using ×20 objective. […] Deletion of Stat3 in HSCs was achieved by crossing GFAP-Cre mice×floxed Stat3^f/f mice=GFAP^Stat3−/− mice. […] Nuclear translocation of Stat3 (but not phosphor-Smad2/3) was detected in wild type HSCs but not in Stat3-deficient HSCs. Representative images are shown using ×20 objective. (E) IL-17-dependent collagen-α1(I) expression is impaired in Stat3-deficient HSCs.
Next, phosphorylation of IL-17 target proteins in KC and HSCs was assessed in vitro (FIG. 18E). […] While the IL-17 signaling pathway in macrophages is characterized^8,22 (and FIG. 18F), IL-17 signaling in HSCs is unknown. […] Thus, similar to macropahges^8,22, NF-κB and Stat3 are downstream targets of IL-17 signaling in HSCs. While NF-κB signaling is required for survival of activated HSC^23, Stat3 may mediate HSC activation by stimulating collagen production.

primary murine HSCs = assay: Collagen-α1(I)-GFP expression in primary HSCs from Col-GFP reporter mice; format: cell-based, mouse; conditions: 48 hours; for expression of GFP (percent of cells upregulated collagen-α1(I)-GFP): IL-17A 10 ng/ml
Description: as §1
For this purpose, primary HSCs were isolated from Col-GFP reporter mice (expressing GFP under collagen-α1(I) promoter) or Col-GFP^IL-17RA−/− mice (generated by crossing IL-17RA^−/− mice with Col-GFP mice, FIG. 9B).

[1] = tested on: primary wild type HSCs and Stat3-deficient HSCs; assay: IL-17A-dependent collagen-α1(I) expression in wild type and Stat3-deficient HSCs; format: cell-based, mouse; conditions: IL-17A 10 ng/ml, 8 h
Description: as §1
HSCs are the only liver cell type that expresses GFAP^1. The role of Stat3 in IL-17A-mediated collagen-α1(I) expression was tested in primary wild type HSCs and Stat3-deficient HSCs, isolated from GFAP^Stat3−/− mice (GFAP^Cre mice×floxed Stat3^f/f mice, FIG. 9D). […] Next, the relevance of IL-17 signaling was accessed in human HSC cell lines.

LX-2 human HSC cell line = assay: Fibrogenic gene mRNA induction in the LX-2 cell line (RT-PCR); format: cell-based; conditions: LX-2, 10 ng/ml, 72 h, compared with non-stimulated cells
Protocol: RT-PCR and real time quantitative PCR. […] Methods.
mRNA was isolated and RT-PCR was performed using ABI 7000 sequence detection system (Applied Biosystems), specific primers and SYBRGreen. Ct values of each sample were normalized to 18s mRNA expression. Values were expressed as fold induction in comparison with untreated or sham controls.

BDL-operated mice = assay: BDL-induced liver fibrosis in mice with daily administration of IL-22 or IL-17E; format: in vivo; conditions: 0.5 μg/mouse daily for 7 days, compared to BDL wt mice+PBS
Protocol: FIG. 11. IL-23 and IL-22 have opposing roles in liver fibrosis. […] Quantification of Sirius Red and α-SMA staining, mRNA expression is shown (p<0.05, compared to BDL wt mice). mRNA expression is fold induction compared to oil-control Wt→wt mice. (D) The percent of inhibition of liver fibrosis was calculated for BM chimeric mice in response to liver injury (in comparison Wt→wt mice, 100%, p<0.01) based on Sirius Red and α-SMA expression. […] Increased fibrosis was detected in IL-22^−/−→wt mice. (E) Administration of IL-22 and IL-17E attenuates liver fibrosis. BDL-operated mice were daily treated with IL-22 (0.5 μg/mouse, n=4), IL-17E (0.5 μg/mouse n=5), or vehicle (PBS) for 7 days, tissues were analyzed by Sirius Red, and α-SMA staining; mRNA expression is shown (p<0.05, compared to BDL wt mice+PBS).
Liver injury was induced in mice by […] with CCl4 (1:4 dilution in corn oil, 200 μl×12 injections^2) or by BDL (3 weeks)^2.
The role of IL-22 and IL-17E in liver fibrosis was examined in BDL-operated mice, injected with IL-22 (0.5 μg/mouse) or IL-17E (0.5 μg/mouse, FIG. 11E).

IL-17A: IL-17 family cytokine mainly produced by CD4+ Th17 cells; purchased from R&D
time to nuclear translocation of Stat3 in HSCs (Stat3): 10 to 15 min
expression of GFP (percent of cells upregulated collagen-α1(I)-GFP) (primary murine HSCs; IL-17RA−/− HSCs (Col-GFP IL-17RA−/−)): 5±2%
expression of GFP (percent of cells upregulated collagen-α1(I)-GFP) (primary murine HSCs; wild type Col-GFP HSCs, baseline 1±0%): 34±7%
collagen-α1(I) expression ([1]; Stat3-deficient HSCs from GFAP Stat3−/− mice): failed to induce
collagen-α1(I) expression ([1]; wild type (Stat3f/f) HSCs): induced

TGF-β1: fibrogenic cytokine used as a control; purchased from R&D [reference compound]
expression of collagen-α1(I)-GFP (primary murine HSCs; both wild type and IL-17RA−/− HSCs, TGF-β1 3 ng/ml, control): strongly induced

B1: IL-17F: IL-17 family cytokine; purchased from R&D (protein, UniProt Q96PD4 31-163, looked up)
Interleukin-17F: RKIPKVGHTFFQKPESCPPVPGGSMKLDIGIINENQRVSMSRNIESRSTSPWNYTVTWDPNRYPSEVVQAQCRNLGCINAQGKEDISMNSVPIQQETLVVRRKHQGCSVSFQLEKVLVTVGCTCVTPVIHHVQ
induction of Col-α1(I) mRNA (LX-2 human HSC cell line): 7 fold
induction of α-SMA mRNA (LX-2 human HSC cell line): 6 fold

B2: IL-17E: Interleukin 25; cytokine that binds to IL-17RA and IL-17RB heterodimers (protein)
chain: YSHWPSCCPSKGQDTSEELLRWSTVPVPPLEPARPNRHPESCRASEDGPLNSRAISPWRYELDRDLNRLPQDLYHARCLCPHCVSLQTGSHMDPRGNSELLYHNQTVFYRRPCHGEKGTHKGYCLERRLYRVSLACVCVRPRVMG
reduction of Sirius Red staining (BDL-operated mice): 3 fold
reduction of mRNA for Col-α1(I) (BDL-operated mice): 3 fold
reduction of mRNA for α-SMA (BDL-operated mice): 2.5 fold

B3: IL-22: protein that in humans is encoded by the IL22 gene; cytokine purchased from R&D (protein, UniProt Q9GZX6 34-179, looked up)
Interleukin-22: APISSHCRLDKSNFQQPYITNRTFMLAKEASLADNNTDVRLIGEKLFHGVSMSERCYLMKQVLNFTLEEVLFPQSDRFQPYMQEVVPFLARLSNRLSTCHIEGDDLHIQRNVQKLKDTVKKLGESGEIKAIGELDLLFMSLRNACI
reduction of Sirius Red staining (BDL-operated mice): 3 fold
reduction of mRNA for Col-α1(I) (BDL-operated mice): 3 fold
reduction of mRNA for α-SMA (BDL-operated mice): 2.5 fold
